The target in assay [1] is EphA4 Fc (human EphA4 Fc, #CJ75, Novoprotein, or mouse EphA4 Fc, #641-A4, R&D Systems/BioTechne) (human or mouse) (UniProt P54764). The assay is described as follows: competition ELISA, inhibition of ephrin-A5 AP binding to immobilized EphA4 Fc. (ELISA stands for enzyme-linked immunosorbent assay.)
For assay [2] the target is unchanged. Put plainly: competition ELISA, inhibition of ephrin-A5 AP binding to immobilized EphA4 Fc (Table 2, repeats Table 1).

The term IC50 denotes the point on the concentration scale where inhibition reaches its midpoint. Read a high IC50 as lower potency.

Sequence of EphA4 Fc (human EphA4 Fc, #CJ75, Novoprotein, or mouse EphA4 Fc, #641-A4, R&D Systems/BioTechne) (human or mouse) (P54764 20-547): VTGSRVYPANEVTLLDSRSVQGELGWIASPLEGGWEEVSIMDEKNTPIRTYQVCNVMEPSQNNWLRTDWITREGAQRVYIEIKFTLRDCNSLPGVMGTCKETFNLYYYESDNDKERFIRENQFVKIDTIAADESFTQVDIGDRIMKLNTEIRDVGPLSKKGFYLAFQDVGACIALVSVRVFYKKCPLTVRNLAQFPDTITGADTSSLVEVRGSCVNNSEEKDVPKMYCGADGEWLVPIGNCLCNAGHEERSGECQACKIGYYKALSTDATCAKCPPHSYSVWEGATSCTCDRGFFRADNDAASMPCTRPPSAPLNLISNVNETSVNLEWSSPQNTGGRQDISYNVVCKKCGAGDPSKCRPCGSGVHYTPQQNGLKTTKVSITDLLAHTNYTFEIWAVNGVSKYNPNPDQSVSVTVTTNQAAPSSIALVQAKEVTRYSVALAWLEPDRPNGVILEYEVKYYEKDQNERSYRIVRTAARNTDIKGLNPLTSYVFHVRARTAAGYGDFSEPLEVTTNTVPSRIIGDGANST

B1: APY-d3-PEG4 (peptide)
peptide: XPYCVYRXSWSCXXX
modifications: β-alanine at 1 and 8; disulfide bond Cys4-Cys12 (Cyc (4,12)); three 6-aminohexanoic acid (Ahx) residues and propargyl-glycine (Pra) after Cys12; 30 kDa methoxy-PEG on Pra through a triazole (click chemistry); free C-terminal acid (-OH)
Consider B1, for which the IC50 in assay [1] and in assay [2] was 20 nM in each case.

The values are drawn from patent publication US20260139007A1, “EPHA4 ANTAGONISTS AND USES THEREOF” (SANFORD BURNHAM PREBYS MEDICAL DISCOVERY INSTITUTE, priority 2023, published 2026).
